Data on four molecules can be found in publication PMC3726529 (Nature, 2013).

The target of data set [1] is T1, isolated TrkA (VpTrkA) (Vibrio parahaemolyticus, UniProt Q87KD2).
T1 sequence (Q87KD2 1-458): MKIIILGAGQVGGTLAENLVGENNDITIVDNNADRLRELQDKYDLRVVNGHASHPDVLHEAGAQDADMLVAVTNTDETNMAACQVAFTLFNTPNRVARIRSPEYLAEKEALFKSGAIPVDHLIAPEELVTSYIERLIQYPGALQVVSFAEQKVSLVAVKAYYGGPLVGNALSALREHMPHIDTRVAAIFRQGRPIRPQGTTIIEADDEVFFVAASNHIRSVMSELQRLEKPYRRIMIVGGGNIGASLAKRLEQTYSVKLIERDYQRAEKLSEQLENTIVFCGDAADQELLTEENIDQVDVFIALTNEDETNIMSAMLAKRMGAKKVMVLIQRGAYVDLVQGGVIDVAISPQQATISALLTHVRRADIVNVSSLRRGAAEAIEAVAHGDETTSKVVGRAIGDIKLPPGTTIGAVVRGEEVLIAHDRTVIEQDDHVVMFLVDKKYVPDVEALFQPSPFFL
The data set is described as follows: co-crystal structure, […] Å. It is filed as binding. Particulars: 10 mM ATPγS; GXGXXG motif in the N lobe of each RCK domain.

Data set [2] has as its target TrkA from Vibrio parahaemolyticus, co-expressed with TrkH (Vibrio parahaemolyticus). Nature of the data set: crystal structure.
In data set [3] the target is isolated TrkA from Vibrio parahaemolyticus (Vibrio parahaemolyticus).
Data set [4] deals with the molecule itself. The data set is described as follows: crystal structure.

`Nc1ncnc2c1ncn2[C@@H]1O[C@H](COP(=O)(O)OP(=O)(O)OP(O)(O)=S)[C@@H](O)[C@H]1O` [ATPγS, adenosine 5′-O-(3-thiotriphosphate)]: the “co-crystal structure, 3.05 Å” value in data set [1] is “Each protomer contains two large densities consistent with ATPγS molecules”.
“TrkA from Vibrio parahaemolyticus, co-expressed with TrkH (natural protein)” displayed a stoichiometry N in data set [2] of 4.
In turn, “isolated TrkA from Vibrio parahaemolyticus (natural protein)” yielded a stoichiometry N in data set [3] of 4.

B1: TrkH from Vibrio parahaemolyticus (natural protein)
chain: MQFRSIIRIVGLLLALFSVTMLAPALVALLYRDGAGVPFVTTFFVLLFCGAMCWFPNRRHKHELKSRDGFLIVVLFWTVLGSAGSLPFLIADNPNISVTDAFFESFSALTTTGATVIVGLDELPKAILFYRQFLQWFGGMGIIVLAVAILPVLGIGGMQLYRAEIPGPVKDTKMTPRIAETAKALWYIYLSLTIACAVAFWLAGMTPFDAISHSFSTIAIGGFSTHDASMGYFDSYAINLITVVFLLISACNFTLHFAAFASGGVHPKYYWKDPEFRAFIFIQVLLFLVCFLLLLKHHSYTSPYDAFDQALFQTVSISTTAGFTTTGFADWPLFLPVLLLFSSFIGGCAGSTGGGMKVIRILLLTLQGARELKRLVHPRAVYTIKVGGSALPQRVVDAVWGFFSAYALVFVVCMLGLIATGMDELSAFSAVAATLNNLGPGLGEVALHFGDVNDKAKWVLIVSMLFGRLEIFTLLILLTPTFWRS
B1: the “stoichiometry N” value in data set [4] was 2.

As a reminder, the stoichiometry N is a count of units in the complex or per binding partner.
